{"source": "patent US10081794B2", "about": "“System and method for electrospun biodegradable scaffold for bone repair” (New Jersey Institute of Technology, priority 2011, dated 2018)", "system": "hMSCs", "assay": "Serum starvation study of PDGF-BB bioactivity (cell proliferation)", "assay_type": "cell-based, human", "settings": "Invitrogen versus Prospec Bio", "method": "At the initiation of this study, arbitrarily called “Day −2”, a vial of hMSCs was thawed, resuspended in 10% FBS DMEM, and seeded into 96 well TCPS plates at a seeding density of 12,500 cells/cm2 or 4000 cells/well. On “Day −1”, 24 hours following the initial cell seeding, the media in the wells was changed with DMEM prepared with various concentrations of FBS (Table 6). On Day 0, the media was supplemented with various concentrations of PDGF-BB (Prospec Bio or Invitrogen). PDGF-BB supplementation was done either once at Day 0, or continually for every 48-72 hours until Day 7.\nAt Days 4 and 7 following growth factor induction, cells were harvested for cell proliferation assay. Briefly, cell lysates (n=3 per media and PDGF-BB condition) were prepared by lysing cells in 0.1% Triton X-100. The PicoGreen reagent fluorescently labels double stranded DNA which was correlated to cell number using a standard curve. The PicoGreen reagent was added to the cell lysates and the fluorescence was detected with a plate reader at 485 nm excitation/528 nm emission.", "data": [{"molecule": "PDGF-BB from Invitrogen: Recombinant human PDGF-BB purchased from Invitrogen, used for subsequent studies (protein, UniProt P01127 82-190, looked up) Platelet-derived growth …: SLGSLTIAEPAMIAECKTRTEVFEISRRLIDRTNANFLVWPPCVEVQRCSGCCNNRNVQCRPTQVQLRPVQVRKIEIVRKKPIFKKATVTLEDHLACKCETVAAARPVT", "values": [{"measurement": "bioactivity of PDGF-BB (cell proliferation studies)", "result": "more bioactive"}]}]}
